± gives the uncertainty stated by the source.
Experiment: amyloid nucleation score (Sup35N fusion, yeast selection) (log enrichment); library NNK2; higher = more nucleation; inactive = no reads after selection
Outline: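 Peptides of 20 random codons fused to Sup35N were expressed in psi-negative yeast, induced 24 hours with 100 μM copper sulfate, then grown 7 days at 30°C on medium lacking adenine and uracil. Input and output plasmid inserts were Illumina-sequenced. Nucleation score is the DiMSum log enrichment of output over input reads, centred on the mode score of non-aggregating sequences, excluding sequences with under 100 input reads. Random libraries had three technical output replicates.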

Substance | amyloid nucleation score
GVIKWKRQETLNHSWGSESE | 5.24 ± 0.072
CKWEFKWPYWGDYLVFMCK | -0.679 ± 1.1
WFMFDFFYF | inactive
WPWVSGPVKQSRCFRIDLSM | 0.459 ± 0.57
HLYLPMYGIMFS | 1.27 ± 0.15
VSLWLYISMQCTRLSRRDQG | 0.22 ± 0.65
IGLTALDFMSAFGVHLYGCG | 0.215 ± 0.76
LLLYEMFSKVGLLFPSYFKY | inactive
RIKRETHAAFNVYSIYAVRY | 0.183 ± 0.3
FIFGCTCNILFICASSRFLQ | 2.92 ± 0.11
GICVFCNSYWL | 8.843 ± 0.055
FCNDRTTVGD | -0.538 ± 0.39
NTWEWLLPEMSNLLSWFSEW | 0.014 ± 0.27
GIDWFTTVMFPAIWVTDILL | 4.593 ± 0.044
IEYWRSGVMELGHVVSYRDI | 0.102 ± 0.77
WAEPYFRCDGSSRIFSQGNA | inactive
YYEYQVIYSVCSMRI | -0.31 ± 1
VMIVFLDAFFGNLRANVVWY | -0.846 ± 0.49
TKEHYYR | 0.048 ± 0.5
SDDWIDYRCNPGRGSKEAMA | 4.6 ± 0.098
KKVYVSDTIWMDYNNS | 3.93 ± 0.064
TCGLSIVDYWSLR | -0.99 ± 1.1
LRNDDIY | -0.533 ± 0.39
SLKITSYSVCVCCLCMNCNT | 7.6 ± 0.052
KGDRKKDCMPDLVYRKLSGV | 0.798 ± 0.67

Substance | amyloid nucleation score
LLWNVGIVYSHMQVFVMRRY | 1.23 ± 0.13
TCIFVNDFSMSGWDCMLFY | 4.4 ± 0.062
IISSYSATEARTMFIKLHCL | -0.606 ± 0.54
LLALSFLTVVFEFCLNSMMG | -1.28 ± 0.62
VLQDMYYKSVKKLQARSKDF | inactive
GMFIMQNGLFYRQSLVAWW | -0.995 ± 0.45
PECVLVSFLRRAFELFAMCN | inactive
DLRRDQRATTERGRVPVVKH | 4.817 ± 0.045
LRRVFQISERRNKLWLYEEC | 0.6 ± 0.74
VMLNWKMVYRTRDFNLQSYD | 1.85 ± 0.15
MCTSGGISG | 0.346 ± 0.5
MMSLPTLQSW | inactive
ACIYRQRDS | -0.332 ± 0.56
ITVYLRTRFLGFGFEYE | -0.536 ± 1
DLDFIKDLTAKLY | -0.183 ± 1
MLCVIHE | 0.675 ± 0.25
MYYYSFSDTTLWEISPQLAT | -0.582 ± 1.1
MGAAITSGEGYDLRLLIDNS | 0.208 ± 1.1
DIPPKDLLGVFIDDEIREYC | -0.436 ± 0.76
RCVWYSGSRLWTYWQVWLMG | 0.458 ± 0.8
AKYIPHAVLKASPTVGIILV | -0.54 ± 1.1
FRKGNIMELFALCCMISYCF | -0.682 ± 0.49
STNVMLLSFSHMYHSYVLLG | -0.261 ± 0.63
VMRVT | 5.22 ± 0.081
VYCLSVMSARSQFCVWGWML | 0.165 ± 1

Substance | amyloid nucleation score
ELVLF | -0.454 ± 0.42
ISGVSDGQMGFWRNEMGQGS | 0.28 ± 0.39
VGPVMINSSSVTQCTGWNRT | 3.8 ± 0.091
WGHRVDCIFKSNLSA | -0.878 ± 0.31
MCRRANGRVLGP | 5.562 ± 0.042
WVDGVLGFKSTLARQSETGG | -0.121 ± 1.1
VNLFVLDSRTNGVCFWELMT | -0.452 ± 0.55
HVRYYGTHSTVNDNYIRNVR | 0.425 ± 0.31
VVSYFCCLDCSLNAYS | 9.384 ± 0.043
LSMTKLGVIGTSCNFLLW | inactive
MRSNWYGNVCVVTSNCDGLG | 0.837 ± 0.48
RWVWDGPLYMLFSCMCYIKR | 6.484 ± 0.064
MHCSESSYYFAILRARHVLL | 1.43 ± 0.12
MIGGDGPRDV | 0.745 ± 0.38
CSSFTQGCKCSF | -0.139 ± 0.37
VLISSKYLIQSVDYILLNGP | -0.217 ± 0.29
RTPSCSL | -0.916 ± 1
QSTMDCT | 0.082 ± 1.1
SQITYVFYFRRGFIMLMWWE | -0.323 ± 0.79
RHVRMISHELNEDTCYTCIL | -0.536 ± 1.1
VLPRYN | 0.471 ± 0.62
KMGLRRFNFCARFEYRTSVA | -0.048 ± 0.25
HHSWRYRLYVSIDSSFCLGA | inactive
GRFLLSLATVSGLCTSRLEI | -0.169 ± 0.39
YWGNYLRSFIYVVTSWSHVF | inactive

Substance | amyloid nucleation score
FAESDGRHHFFSPLVSERIE | 3.82 ± 0.056
TSPSKLFRDLFYHPRSKPVA | 0.708 ± 0.41
STICFG | -0.541 ± 1
VYRLTRVISEWRSILVLVWT | 0.328 ± 0.42
YNLCSSCNIQWWCSRMHQQK | 8.858 ± 0.055
RSYSGVFT | -0.926 ± 0.48
HEMVTRQRLVTSRQYLSLGV | 1.11 ± 0.29
DIIFVDALMSVTSVQQNLH | -0.388 ± 0.55
SGIVG | 0.791 ± 0.57
RMQHKHASVKGPTCVIQCTD | 1.62 ± 0.34
CFYSNWKQGYDICHVSGDRF | -0.956 ± 0.78
LPWLWQLTFPFWA | 0.582 ± 0.37
RLALWVKSSYVFIQESEELH | 3.2 ± 0.1
SVLNGAAGMYWCW | 0.107 ± 0.46
WFFTSS | -0.526 ± 0.76
WVLCRRNLLGH | inactive
PRRNWMLVCTIIFVWNEKEY | 0.034 ± 1.1
NCWYTFTL | 1.45 ± 0.12
DSLMQVNWN | 1.01 ± 0.36
QSRCGYMGNRH | 0.166 ± 0.76
VNSSFLLGFCLRIMNHV | inactive
VLGLSR | 0.584 ± 0.51
AIEYPYRCYRDVAWLRALAS | 0.582 ± 0.28
LAGSVTIPLPTCYSIMTSRP | 0.233 ± 0.77
SVSSKGNLGA | 0.11 ± 0.22

Substance | amyloid nucleation score
PYVTFITLCSAFKYVYKCWY | 5.448 ± 0.047
IISFLLFGEGGFFLVLY | inactive
AVLCWLCLLGGLNINFEECG | 4.11 ± 0.045
NSVDSRWGDQLARICIHGMT | 0.141 ± 0.42
LVRPFWTLRYKTYHRSPVGR | 1.59 ± 0.15
ALDWPLICA | -0.07 ± 0.39
DRIYNVGRSRTGRSLFYSPV | -1.19 ± 0.38
NVSIMFRFFVYLC | 4.16 ± 0.066
TGVLCGSYFFWLF | 5.15 ± 0.058
CYSLYLRS | -0.018 ± 1.1
LSLLFH | inactive
IRNNPCFQSGDVGY | -0.088 ± 1.1
DTLWEGSLLNVYFVDVIRST | 0.06 ± 0.55
IKNVWFQFSCGGPGSLRVGS | 0.318 ± 0.32
RPFKYCVRRLANRA | 0.135 ± 0.65
CFCKKCWVDSLLRRRVNNFH | -0.737 ± 1.1
FISGYLSETVMVLVDRRLRC | -0.047 ± 1.1
CSKRSQTKVITHICARGEVS | 0.827 ± 0.28
DSNTSSDILGLSYLYGRTRL | 0.168 ± 0.37
IFSIKPIYLDLNQRVNSIAE | inactive
YSGDNVNVVKQRPSCFLISR | -0.24 ± 0.74
RTVEWRDNYLLGRILLFNPV | -0.187 ± 0.55
LMYVGFTRMRKKINRKVYLV | 3.19 ± 0.1
TLDGLDS | -0.283 ± 0.25
SIKGIEVEYQGFRVCYSTVY | inactive

Substance | amyloid nucleation score
VEARVHFPFWDLIEVSMYGY | -0.665 ± 0.49
YRLPRLRMLTLFLCFTNVGK | 1.37 ± 0.2
KGCVLCNIFCRSKGVVGSTL | 8.737 ± 0.035
KCPSESMRKFF | 0.672 ± 0.53
KPVGPVYAS | -0.262 ± 0.48
NMCVK | inactive
TWGFYAVTCLQLLPRFVKHV | -0.374 ± 0.33
CFNGLDLLILSTKMVSLLWY | -0.492 ± 1.1
TNDYSFWVLSHTANQPSLME | inactive
LRFVEPTTCVWGRDLFGAHS | 0.545 ± 0.53
DGVCYSRVNYIPISMHVVYR | 4.87 ± 0.08
PDVMLCIFYIDFMQGFFDLY | 5.08 ± 0.07
VGLISERLVSMSTVA | 0.4 ± 0.56
LLMVFHTTKY | 6.665 ± 0.026
ARRIVMWVYECGTYCWRRTT | 0.216 ± 0.43
YRCIMVATMWGPRVELGR | 0.522 ± 0.39
SFNGVILRNDVITRVLFDRQ | 6.7 ± 0.051
WHSVHYNLFCCF | 8.689 ± 0.041
VYYWHEYFIDWY | -1.27 ± 1.1
YFRHVVAGHLRCCLLVSARD | 2.7 ± 0.13
GAYYSQ | -0.316 ± 0.46
NFCLVNLEWMRWSNLTDGLQ | 5.34 ± 0.055
VKFFSSVLSNDGFRSLGVCL | 0.13 ± 1.1
NEHCVNAGSRWMDGCVSCWY | 3.58 ± 0.082
TGWTFWGGCRWM | 4.57 ± 0.12

Substance | amyloid nucleation score
GWSSSHVWVGLNS | 2.44 ± 0.21
STPLILVRCNSYL | -0.456 ± 0.28
TSFQVFINYVSL | 7.605 ± 0.046
YFTWQHLRNSRMWV | 3.34 ± 0.11
QHVFKVVSVALIMRCYDCGI | 1.64 ± 0.11
ILLFELNAPFVEYSNAFG | 3 ± 0.045
LLGCYNYSFRWDSRASASR | -0.207 ± 0.55
INQHEPFPPGVVLKVHKTL | -0.021 ± 0.34
SKNYSSWPNPHMIQGLLGSM | -0.735 ± 0.3
SCNDANILSMSVVWVLRTGE | 3.12 ± 0.13
SVDVKPVTQMTGTMVESTGS | 1.17 ± 0.28
HDPRIYW | 0.441 ± 0.27
ARKKALGGNNLEVVLFLFSC | 4.93 ± 0.098
KLMPLTTIPDEVWYFIGYRL | -0.501 ± 0.32
CIRFVVMNIYGAASDKSMVG | 7.422 ± 0.036
YLGNLSPQRLRCFISLWIVQ | -1.49 ± 1.1
SLTVTDIKLGHGRV | 6.2 ± 0.04
VPSRGLF | 0.815 ± 0.4
LSLMHAQHSTMLDNSMTM | 0.621 ± 0.56
WVCNFVMIRLGIFEF | 1.78 ± 0.14
ILYGLSVQFLGLFCSYCKSS | 6.013 ± 0.058
TRLMCMFERYQACFTDLSDI | -0.698 ± 0.54

— the supplement of paper PMC12042874
